Residue numbers refer to the chain shown, from its start. In names and notes the source's numbering stands. Several values for one entry are separate records, joined by “and”; a condition that tells them apart may be missing. Identical values can stand only once.
Legend:
DH1 = experiment: Fosmidomycin sensitivity of E. coli strain DH1; type: cell-based
Description: Fosmidomycin sensitivity was tested by introducing various amounts of fosmidomycin into DH1, BW25113 and BL21, three E. coli strains commonly used for microbial metabolic engineering. […] At higher concentrations of fosmidomycin, cell death was accelerated in DH1, supported by a fast reduction in optical density (OD) at 600 nm after approximately two hours of exposure to fosmidomycin. On the other hand, both BL21 and BW25113 continued to grow for approximately four hours when exposed to equivalent fosmidomycin levels. Therefore, DH1 was selected as a host strain to screen PMD mutants for improved MVAP decarboxylation activity and subsequent isopentenol production in this study.

E. coli DH1 [1] = experiment: Isopentenol production in E. coli via IPP-bypass MVA pathway (GC-FID); type: cell-based, Escherichia coli
[2] = substrate: C[C@@](O)(CCOP(=O)(O)O)CC(=O)O; experiment: purified protein, by the assay type; settings: other: MVAP 0.100-4.0 mM, 4 mM ATP, pH 7.5, brackets: standard error
Description: This turnover number (kobs) depends upon each mutant's kcat, KM, and KI, yielding a more accurate assessment of the turnover conditions in vivo (Kang et al., 2016).
In vitro enzyme kinetics of PMDsc were performed as described in the previous study (Kang et al., 2016). Briefly, enzymatic activity was determined by a spectrophotometric assay quantifying ADP product formation via the pyruvate kinase/lactate dehydrogenase coupled enzyme assay. Assay mixtures were prepared in 150 μL total volume containing 50 mM HEPES-KOH (pH 7.5), 10 mM MgCl2, 400 μM phosphoenolpyruvate, 400 μM NADH, 4 mM ATP, and 25 U of pyruvate kinase/lactate dehydrogenase. The reaction was initiated by enzyme after incubating PMDsc substrate and cofactor for fifteen minutes with coupled assay components. The MVAP was varied from 0.100-4.0 mM, and the reaction velocity was determined by monitoring the absorbance at 340 nm in a Spectramax 384plus microplate reader (Molecular Devices, USA). To obtain kinetic data relevant to non-competitive substrate inhibition, MVAP was varied from 0.100-100 mM. Enzyme concentration (ε=56,630 M^−1 cm^−1) was determined spectrophotometrically at 280 nm with a NanoDrop ND-1000 spectrophotometer. kcat and KM were derived for PMDsc mutants by fitting the initial velocities measured from 0.100-4.0 mM MVAP to the Michaelis-Menten equation; KI was determined for select mutants by fitting initial velocities measured from 0.100-100 mM MVAP to the non-competitive substrate inhibition equation. All kinetic analysis was performed in Graphpad Prism, version 7.0a.

E. coli DH1 [3] = experiment: Growth of E. coli DH1 under the screening conditions (MEP pathway blocked by fosmidomycin, IPP-bypass pathway + IPK); settings: for growth under fosmidomycin selection pressure: screening platform
[4] = substrate: C[C@@](O)(CCOP(=O)(O)O)CC(=O)O; experiment: In vitro kinetics of MVAP decarboxylation by PMDsc K22Y (coupled assay); type: biochemical, Saccharomyces cerevisiae; settings: other: MVAP 0.100-4.0 mM, 4 mM ATP, pH 7.5, brackets: standard error
[5] = In vitro enzyme kinetics of PMDsc variants (pyruvate kinase/lactate dehydrogenase coupled assay); type: biochemical
[6] = cited from earlier work; for activity of WT for phosphomevalonate (MVAP): previous study (Kang 2015)
[7] = substrate: C[C@@](O)(CCOP(=O)(O)O)CC(=O)O; experiment: In vitro kinetics of MVAP decarboxylation by PMDsc R147K (coupled assay); type: biochemical, Saccharomyces cerevisiae; settings: other: MVAP 0.100-4.0 mM, 4 mM ATP, pH 7.5, brackets: standard error
[8] = substrate: C[C@@](O)(CCOP(=O)(O)O)CC(=O)O; experiment: In vitro kinetics of MVAP decarboxylation by PMDsc M212Q (coupled assay); type: biochemical, Saccharomyces cerevisiae; settings: other: MVAP 0.100-4.0 mM, 4 mM ATP, pH 7.5, brackets: standard error
[9] = substrate: C[C@@](O)(CCOP(=O)(O)O)CC(=O)O; experiment: In vitro kinetics of MVAP decarboxylation by PMDsc I145A (coupled assay); type: biochemical, Saccharomyces cerevisiae; settings: other: MVAP 0.100-4.0 mM, 4 mM ATP, pH 7.5, brackets: standard error
[10] = substrate: C[C@@](O)(CCOP(=O)(O)O)CC(=O)O; experiment: In vitro kinetics of MVAP decarboxylation by PMDsc Y19H (coupled assay); type: biochemical, Saccharomyces cerevisiae; settings: other: MVAP 0.100-4.0 mM, 4 mM ATP, pH 7.5, brackets: standard error
[11] = substrate: C[C@@](O)(CCOP(=O)(O)O)CC(=O)O; experiment: In vitro kinetics of MVAP decarboxylation by PMDsc S186C (coupled assay); type: biochemical, Saccharomyces cerevisiae; settings: other: MVAP 0.100-4.0 mM, 4 mM ATP, pH 7.5, brackets: standard error
E. coli DH1 [12] = settings: Kang et al., 2016; cited from earlier work
[13] = text and figure legends, 48 hours after induction
[14] = 10-fold higher inducer concentration (100 nM aTc)
[15] = Table 2, screening conditions, standard deviation in brackets
[16] = compared with wild type or library mutants
[17] = Table 2, MVAP 0.100-4.0 mM, standard error in brackets
[18] = Table 2, MVAP, standard error in brackets

With `O=CN(O)CCCP(=O)(O)O` [fosmidomycin] the growth on fosmidomycin (DH1; 10 μM fosmidomycin) was “no growth” and the “exposure time until fast reduction in OD at 600 nm” value (DH1; higher concentrations of fosmidomycin) was “approximately two”.

B1: Saccharomyces cerevisiae diphosphomevalonate decarboxylase (PMDsc), wild type, SEQ ID NO: 1 (Saccharomyces cerevisiae S288C) (protein)
chain: MTVYTASVTAPVNIATLKYWGKRDTKLNLPTNSSISVTLSQDDLRTLTSAATAPEFERDTLWLNGEPHSIDNERTQNCLRDLRQLRKEMESKDASLPTLSQWKLHIVSENNFPTAAGLASSAAGFAALVSAIAKLYQLPQSTSEISRIARKGSGSACRSLFGGYVAWEMGKAEDGHDSMAVQIADSSDWPQMKACVLVVSDIKKDVSSTQGMQLTVATSELFKERIEHVVPKRFEVMRKAIVEKDFATFAKETMMDSNSFHATCLDSFPPIFYMNDTSKRIISWCHTINQFYGETIVAYTFDAGPNAVLYYLAENESKLFAFIYKLFGSVPGWDKKFTTEQLEAFNHQFESSNFTARELDLELQKDVARVILTQVGSGPQETNESLIDAKTGLPKE
For B1, the “48 hr Titer (isopentenol)” value (E. coli DH1 [1]) was 475 (40) mg/L and 475 mg/L, the isopentenol titer (E. coli DH1 [1]; [13]) was 475.1 mg/L and the isopentenol titer (E. coli DH1 [1]; text and figure legends, 48 hours after induction, listed as wild type) was 475 mg/L. The Km [2] was 2.3 ± 0.2 mM, the kcat [2] was 0.15 (0.01) sec^−1 and the kcat/Km [2] was 0.066 (0.007) mM^−1 sec^−1. The Growth rate (E. coli DH1 [3]; [14]) was 0.83±0.01 hr^1, the “growth rate (reference line FIG. 6)” value (E. coli DH1 [3]; FIG. 6 legend) was 0.4 and the Growth rate (E. coli DH1 [3]; [15]) was 0.39 (0.02) hr^−1. It also gave a Growth rate (E. coli DH1 [3]; Table 3) of 0.39 h⁻¹ and a Growth rate (E. coli DH1 [3]; screening conditions) of 0.4 h⁻¹.

B2: Saccharomyces cerevisiae diphosphomevalonate decarboxylase (PMDsc, SEQ ID NO: 1) variant K22Y (Saccharomyces cerevisiae S288C; K22Y) (protein)
chain: B1 chain with K22Y
notes: His tag; made in house; host or cells: E. coli Rosetta (DE3)
In the case of B2, the Km [4] is reported as 1.3 (0.3) mM, the kcat [4] is reported as 0.09 (0.01) sec^−1 and the kcat/Km [4] is reported as 0.12 (0.03) mM^−1 sec^−1.

B3: E144D (protein)
chain: B1 chain with E144D
With B3 the “isopentenol titer” value (E. coli DH1 [1]; [16]) was “increased isopentenol production titers”.

B4: V230E: PMDsc mutant V230E (protein)
chain: B1 chain with V230E
With B4 the Ki ([5]; MVAP up to 100 mM, read-out: KI (substrate inhibition)) was 10 mM, the kcat [5, 17] was 0.07 (0.01) sec^−1 and the Km [5, 18] was 800 µM. The Km ([5]; Table 3) was 800 µM, the kcat ([5]; Table 3) was 0.07 s⁻¹ and the kobs ([5]; Table 3, observed turnover number calculated at 100 mM MVAP) was 0.006 s⁻¹. For the same molecule, the “48 hr Titer (isopentenol)” value (E. coli DH1 [1]) was 278 (91) mg/L and 278 mg/L, the Growth rate (E. coli DH1 [3]; [15]) was 0.21 (0.18) hr^−1 and the Growth rate (E. coli DH1 [3]; Table 3) was 0.2 h⁻¹.

B5: K22M: PMDsc mutant K22M with decreased activity, previous study (protein)
chain: B1 chain with K22M
For B5, the “activity of WT for phosphomevalonate (MVAP)” value [6] is given as 25%, the Growth rate (E. coli DH1 [3]; [14]) is given as 0.83±0.01 hr^1 and the “growth under fosmidomycin selection pressure” value (E. coli DH1 [3]) is given as “decreased growth rates relative to wild type”.

B6: Saccharomyces cerevisiae diphosphomevalonate decarboxylase (PMDsc, SEQ ID NO: 1) variant R147K (Saccharomyces cerevisiae S288C; R147K) (protein)
chain: B1 chain with R147K
notes: as for B2
For B6, the “48 hr Titer (isopentenol)” value (E. coli DH1 [1]) was 793 (22) mg/L, the “isopentenol titer” value (E. coli DH1 [1]; [16]) was “increased isopentenol production titers” and the Km [7] was 0.5 (0.1) mM. The kcat [7] was 0.149 (0.006) sec^−1, the kcat/Km [7] was 0.32 (.09) mM^−1 sec^−1 and the Growth rate (E. coli DH1 [3]; [15]) was 0.56 (0.02) hr^−1.

B7: R74G-E144D (protein)
chain: B1 chain with R74G, E144D
For B7, the “isopentenol titer relative to wild type” value (E. coli DH1 [1]) was 1.6 fold.

B8: Saccharomyces cerevisiae diphosphomevalonate decarboxylase (PMDsc, SEQ ID NO: 1) variant M212Q (Saccharomyces cerevisiae S288C; M212Q) (protein)
chain: B1 chain with M212Q
notes: as for B2
With B8 the “48 hr Titer (isopentenol)” value (E. coli DH1 [1]) was 601 (76) mg/L, the “isopentenol titer” value (E. coli DH1 [1]; [16]) was “significantly increase isopentenol titer” and the Km [8] was 0.7 (0.2) mM. For the same molecule, the kcat [8] was 0.35 (0.02) sec^−1, the kcat/Km [8] was 0.5 (0.1) mM^−1 sec^−1 and the Growth rate (E. coli DH1 [3]; [15]) was 0.09 (0.01) hr^−1.

B9: Saccharomyces cerevisiae diphosphomevalonate decarboxylase (PMDsc, SEQ ID NO: 1) variant I145A (Saccharomyces cerevisiae S288C; I145A) (protein)
chain: B1 chain with I145A
notes: as for B2
In the case of B9, the “48 hr Titer (isopentenol)” value (E. coli DH1 [1]) is reported as 623 (140) mg/L, the Km [9] is reported as 2 (1) mM and the kcat [9] is reported as 0.029 (0.004) sec^−1. The kcat/Km [9] was 0.01 (0.01) mM^−1 sec^−1 and the Growth rate (E. coli DH1 [3]; [15]) was 0.17 (0.00) hr^−1.

B10: Saccharomyces cerevisiae diphosphomevalonate decarboxylase (PMDsc, SEQ ID NO: 1) variant Y19H (Saccharomyces cerevisiae S288C; Y19H) (protein)
chain: B1 chain with Y19H
notes: as for B2
In the case of B10, the “48 hr Titer (isopentenol)” value (E. coli DH1 [1]) is reported as 388 (9) mg/L, the “isopentenol titer” value (E. coli DH1 [1]; [16]) is reported as “significantly decreased isopentenol titers” and the Km [10] is reported as 0.35 (0.02) mM. The kcat [10] was 0.27 (0.01) sec^−1, the kcat/Km [10] was 0.78 (0.06) mM^−1 sec^−1 and the Growth rate (E. coli DH1 [3]; [15]) was 0.22 (0.01) hr^−1.

B11: K22Y: PMDsc mutant K22Y (protein)
chain: B1 chain with K22Y
In the case of B11, the “48 hr Titer (isopentenol)” value (E. coli DH1 [1]) is reported as 22 (8) mg/L, the isopentenol titer (E. coli DH1 [1]; [13]) is reported as 22 ± 8 mg/L and the Growth rate (E. coli DH1 [3]; [15]) is reported as 0.13 (0.11) hr^−1.

B12: Saccharomyces cerevisiae diphosphomevalonate decarboxylase (PMDsc, SEQ ID NO: 1) variant S186C (Saccharomyces cerevisiae S288C; S186C) (protein)
chain: B1 chain with S186C
notes: as for B2
In the case of B12, the “48 hr Titer (isopentenol)” value (E. coli DH1 [1]) is reported as 596 (110) mg/L, the Km [11] is reported as 0.8 (0.2) mM and the kcat [11] is reported as 0.07 (0.01) sec^−1. For the same molecule, the kcat/Km [11] was 0.08 (0.02) mM^−1 sec^−1 and the Growth rate (E. coli DH1 [3]; [15]) was 0.30 (0.02) hr^−1.

B13: R74G-R147K: PMDsc double mutant (protein)
chain: B1 chain with R74G, R147K
For B13, the kcat [5, 17] was 0.22 (0.01) sec^−1, the Km [5, 18] was 530 µM and the “isopentenol titer relative to wild type” value (E. coli DH1 [1]) was 1.9 fold. For the same molecule, the “48 hr Titer (isopentenol)” value (E. coli DH1 [1]) was 909 (25) mg/L and the Growth rate (E. coli DH1 [3]; [15]) was 0.84 (0.04) hr^−1.

B14: R74G-R147K-Q140L: PMDsc triple mutant (protein)
chain: B1 chain with R74G, Q140L, R147K
In the case of B14, the kcat [5, 17] is reported as 0.06 (0.01) sec^−1, the Km [5, 18] is reported as 2000 µM and the “48 hr Titer (isopentenol)” value (E. coli DH1 [1]) is reported as 401 (10) mg/L.

B15: S155E (protein)
chain: B1 chain with S155E
With B15 the “growth under fosmidomycin selection pressure” value (E. coli DH1 [3]) was “impaired growth”.

B16: T209D (protein)
chain: B1 chain with T209D
For B16, the “isopentenol titer in E. coli” value (E. coli DH1 [12]) is listed as “did not significantly change the isopentenol titer”.

B17: S208E: inactive PMDsc mutant, negative control (protein)
chain: B1 chain with S208E
In the case of B17, the “activity toward MVAP” value ([6]; Kang et al., 2016) is listed as “inactive toward MVAP”, the “activity of WT for phosphomevalonate (MVAP)” value [6] is listed as “not detectible” and the “growth under fosmidomycin selection pressure” value (E. coli DH1 [3]) is listed as “none of three IPK-expressing DH1 strains (SP4, SP5 and SP6) could grow”.

B18: Q140L (protein)
chain: B1 chain with Q140L
In the case of B18, the “isopentenol titer” value (E. coli DH1 [1]; [16]) is reported as “increased isopentenol production titers”.

B19: Saccharomyces cerevisiae diphosphomevalonate decarboxylase (PMDsc, SEQ ID NO: 1) variant R74G (Saccharomyces cerevisiae S288C; R74G) (protein)
chain: B1 chain with R74G
In the case of B19, the “48 hr Titer (isopentenol)” value (E. coli DH1 [1]) is reported as 975 (96) mg/L and 975 mg/L, the Km [2] is reported as 3.4 (1.0) mM and the kcat [2] is reported as 0.14 (0.02) sec^−1. For the same molecule, the kcat/Km [2] was 0.04 (0.01) mM^−1 sec^−1, the Growth rate (E. coli DH1 [3]; [15]) was 0.81 (0.03) hr^−1 and the Growth rate (E. coli DH1 [3]; Table 3) was 0.81 h⁻¹.

Reference: US11001838B2, “Platform for screening phosphomevalonate decarboxylase” (The Regents of the University of California, priority 2017, dated 2021)
